Source: patent US6723841

Columns and labels:
[1] = molecular target: T1, human CRF2α receptor (human) (UniProt Q13324); experiment: cell-based or functional assay
T1 sequence: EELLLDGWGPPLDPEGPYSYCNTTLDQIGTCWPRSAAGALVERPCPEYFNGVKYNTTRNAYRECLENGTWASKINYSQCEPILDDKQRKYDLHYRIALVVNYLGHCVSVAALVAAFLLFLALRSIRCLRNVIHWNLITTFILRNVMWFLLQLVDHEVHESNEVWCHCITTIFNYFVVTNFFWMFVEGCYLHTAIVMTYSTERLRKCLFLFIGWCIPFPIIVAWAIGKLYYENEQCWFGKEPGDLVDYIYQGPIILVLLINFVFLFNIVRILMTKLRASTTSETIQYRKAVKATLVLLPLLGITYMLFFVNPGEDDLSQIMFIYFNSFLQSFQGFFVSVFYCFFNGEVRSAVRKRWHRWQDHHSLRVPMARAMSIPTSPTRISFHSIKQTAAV

[2] = molecular target: human CRF1 receptor (human) (UniProt P34998); experiment: cell-based or functional assay
Chain of human CRF1 receptor (human) (P34998 24-415): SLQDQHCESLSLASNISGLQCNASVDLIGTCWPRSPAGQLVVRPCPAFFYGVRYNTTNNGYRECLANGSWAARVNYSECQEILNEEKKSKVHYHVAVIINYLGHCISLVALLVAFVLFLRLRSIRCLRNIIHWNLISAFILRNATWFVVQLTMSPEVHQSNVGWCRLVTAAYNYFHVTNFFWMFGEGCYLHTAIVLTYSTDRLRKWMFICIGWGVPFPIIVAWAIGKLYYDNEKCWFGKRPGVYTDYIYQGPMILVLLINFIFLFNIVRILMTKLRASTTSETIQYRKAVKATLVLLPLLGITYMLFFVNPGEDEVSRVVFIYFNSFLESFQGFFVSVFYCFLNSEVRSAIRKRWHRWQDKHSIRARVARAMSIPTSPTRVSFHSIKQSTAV

| EC50 of adenylate cyclase stimulation (cAMP) [1] | EC50 of adenylate cyclase stimulation (cAMP) [2] | Substance |
| --- | --- | --- |
| > 1000 nM | 800 nM | Gly41 r/hCRF-OH (from UniProt P06850 154-194) (peptide) |
| 2 nM | 4 nM | Urotensin I (peptide) |
| > 1000 nM | > 1000 nM | α-helical oCRF(9-41) (peptide) |
